The supplement of paper PMC10567573

B1: PLD5 (parent)
chain: VTYMNMTAYNKGRLQSSFWIVDKQ

Variants of: B1
Assay: protein stability index of a GFP-peptide fusion (GPS, HEK-293T) (PSI 1-6); higher = more stable
Conditions: c terminus: a fixed tail appended
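Note: lentivirally expressed fusions sorted by FACS into six bins by GFP to DsRed ratio, PSI derived from sequencing read proportions per bin multiplied by bin number.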

Protein stability index: each site, then its substitutions
I20: D 1.33; A 1.41; N 1.91
W19: K 1.84; D 2.45; T 2.18; H 2.21; L 2; E 2.04; G 2.01; R 1.91; P 1.98; F 2.04; A 1.8; S 2.29; I 1.76; Q 2.46; C 1.49; Y 1.91; V 1.65; M 1.62
N10: W 3.08; E 3.78; A 2.67; L 1.28; D 2.75; H 1.97; T 2.49; P 2; Y 2.25; C 2.87; R 2.25; M 3.39; K 1.89; S 1.95; Q 2.97
Y9: S 1.83; T 2.06; W 3.74; V 1.81
Q15: K 1.03; V 4.47; R 3.58; A 3.27; G 2.44; H 2.42; N 3.18; P 2.48; I 2.03; T 4.18; F 1.61; D 1.63; W 2.58; E 1.94; M 2.46; L 2.49
R13: I 2.15; Q 2.13; H 3.22; N 1.52; W 4.66; G 1.6; K 1.27; Y 2.93; D 3.06; L 1.51; T 1.48; A 3.25; S 1.59; M 2.14; E 1.73
Q24: D 1.85; K 1.24; N 2.11; A 2.28; E 1.48; S 2.22; P 2.67; M 3.08; T 2.79; R 2.46; I 2.52; H 2.19
V21: R 1.7; P 1.85; L 2.21; H 1.28; C 1.38; F 1.43; S 1.55; N 2.82; D 1.96; E 1.5; G 1.53; I 2.63; Y 1.81; T 2.43; K 2.31; M 1.52; A 2.08; Q 1.89
K11: N 3.07; H 1.95; A 1.36; P 2.17; T 2.14; L 3.44; D 1.96; G 1.65; S 2.96; E 3.5; I 3.18; Y 3.58; W 1.68; Q 1.84; R 1.96
D22: C 3.67; K 2.53; R 3.44; E 1.21; H 3.52; T 3.51; P 2.11; M 3.38; N 3.19
S16: K 1.63; Y 4.23; T 3.01; A 3.62; D 2.08; W 3.41; N 1.21; P 1.1; F 3.61; Q 2.42; H 2.01; R 1.28; I 2.81
L14: A 2.63; R 2.06; Y 2.04; S 2.72; T 2.14; E 1.62; D 2.06; V 1.84; W 2.63; K 2.29; N 1.29; F 1.93; M 2.88; P 2.86; Q 1.25
K23: T 3.52; L 4.23; M 3.22; Q 1.74; R 2.17; H 2.49; I 2.33; C 1.95; N 3.33; D 2.85; A 3.81; P 2.67; Y 2.52; E 3.18
